Measurements from patent US20180162911A1, “POLYPEPTIDES FOR THE DIAGNOSIS AND THE TREATMENT OF C3 NEF ASSOCIATED C3 GLOMERULOPATHY” (INSERM (INSTITUT NATIONAL DE LA SANTÉ ET DE LA RECHERCHE …, priority 2015, published 2018).
Where no end group is shown, it is not given here.

Key:
Properdin [1] = target: T1, Properdin (Homo sapiens, UniProt P27918); assay: Peptide inhibition assay: inhibition of the stabilization of the C3 convertase mediated by Properdin (haemolytic, membrane-bound C3bBb); format: biochemical; conditions: for % inhibition of the Properdin stabilization capacity: 50 ng Properdin pre-incubated with 10 μg peptide 2 h at room temperature, n=2 experiments; for dose dependence of inhibition of Properdin stabilization: different doses of peptides
T1 construct: purchased Calbiochem
T1 sequence (P27918 28-469): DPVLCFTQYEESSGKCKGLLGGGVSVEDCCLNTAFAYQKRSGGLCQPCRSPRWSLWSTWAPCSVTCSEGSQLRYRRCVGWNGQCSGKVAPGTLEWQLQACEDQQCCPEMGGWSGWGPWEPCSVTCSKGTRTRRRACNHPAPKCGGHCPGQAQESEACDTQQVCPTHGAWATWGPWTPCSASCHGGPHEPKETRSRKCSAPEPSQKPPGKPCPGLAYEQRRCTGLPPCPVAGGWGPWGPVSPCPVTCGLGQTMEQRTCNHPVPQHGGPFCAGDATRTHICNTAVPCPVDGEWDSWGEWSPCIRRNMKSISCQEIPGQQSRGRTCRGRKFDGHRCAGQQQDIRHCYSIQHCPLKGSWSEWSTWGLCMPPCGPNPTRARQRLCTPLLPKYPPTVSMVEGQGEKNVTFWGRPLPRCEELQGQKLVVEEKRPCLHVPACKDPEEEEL
Method: (§1) The ability of patient' IgG to stabilize a pre-formed membrane bound C3bBb was measured with EAC3bBb generated by the incubation of EC3b with appropriate concentration of FB and FD. Briefly, IgG was partially purified from plasma by chromatography on DEAE-cellulose and subsequently quantified by nephelometry. DEAE eluate contains IgG, and also low levels of contaminants such as Properdin and Factor H. Sheep erythrocytes EAC34b were incubated in presence of FB (Complement Technology) and FD (Sigma) to form the alternative convertase C3bBb. The convertase was allowed to decay in EDTA-containing buffer in presence of 400 μg of patient' IgG. Lysis was developed by the addition of rat serum. C3NeF stabilization was measured as the percentage of the residual convertase compared to the reference control without decay. The cut-off for positive C3NeF was determined as the mean+2 sd of the C3NeF stabilization of IgG from 30 healthy individuals.
Different mixes of 50 ng of Properdin and 10 μg of peptides were incubated at room temperature for 2 hours with gentle shaking in EDTA-containing buffer. As a control, Properdin was incubated with the peptide's dilution buffer. Membrane-bound convertase was formed as in the C3bBb assay. During the convertase decay step, cells were incubated with the mix of FP and peptides. FP amount was chosen in order to obtain 50% of residual convertase after the decay. Residual convertase was measured and data were expressed as percentage of inhibition (percentage of residual convertase compared to the control without peptide).

C3NeF (patient IgG) [2] = assay: Peptide inhibition assay with patients' IgG: reduction of C3NeF stabilization of the C3bBb convertase; format: biochemical, human; conditions: for decrease of % stabilization of P1 IgG: 100 μg IgG from P1 (stabilizes only C3bBb) taken as 100%, peptides pre-incubated overnight, n=3 experiments
Method: as §1
The test was performed as described earlier, but 80 μg of peptides was utilized and the incubation of IgG and peptides was made at 4° C. overnight. IgG amount was determined depending on their stabilization capacity, in order to obtain 50% of residual convertase after the decay.
Membrane-bound convertase was formed as in the C3bBb assay. During the convertase decay step, cells were incubated with a fixed dose of Peptides (80 μg) and patient' IgG (amount determined by the concentration of IgG leading to 50% of residual convertase). The concentration of IgG applied in the test was chosen depending on their C3NeF activity.

Properdin [3] = target: T1, Properdin; assay: ELISA, biotinylated peptides coated, binding of Properdin
Method: To investigate whether Properdin binds the peptides biotinylated peptides was coated onto ELISA plates and increased among of Properdin were incubated before adding anti human Properdin.

C3NeF (patient IgG) [4] = assay: Peptide inhibition assay with patients' IgG: reduction of C3NeF stabilization of the C3bBb convertase; format: biochemical, human; conditions: P1 IgG
[5] = target: T2, membrane bound C3bBb convertase (Homo sapiens, UniProt P00751+P01024); assay: C3b erythrocyte based C3bBb convertase stabilization / competition assay; format: biochemical
T2 construct: EAC3bBb generated by the incubation of EC3b with appropriate concentration of FB and FD; incubated in presence of FB (Complement Technology) and FD (Sigma) to form the alternative convertase C3bBb; purchased Complement Technology (FB); Sigma (FD); host or cells: sheep erythrocytes coated with C3b
T2 sequence (P01024 23-667 limits assumed): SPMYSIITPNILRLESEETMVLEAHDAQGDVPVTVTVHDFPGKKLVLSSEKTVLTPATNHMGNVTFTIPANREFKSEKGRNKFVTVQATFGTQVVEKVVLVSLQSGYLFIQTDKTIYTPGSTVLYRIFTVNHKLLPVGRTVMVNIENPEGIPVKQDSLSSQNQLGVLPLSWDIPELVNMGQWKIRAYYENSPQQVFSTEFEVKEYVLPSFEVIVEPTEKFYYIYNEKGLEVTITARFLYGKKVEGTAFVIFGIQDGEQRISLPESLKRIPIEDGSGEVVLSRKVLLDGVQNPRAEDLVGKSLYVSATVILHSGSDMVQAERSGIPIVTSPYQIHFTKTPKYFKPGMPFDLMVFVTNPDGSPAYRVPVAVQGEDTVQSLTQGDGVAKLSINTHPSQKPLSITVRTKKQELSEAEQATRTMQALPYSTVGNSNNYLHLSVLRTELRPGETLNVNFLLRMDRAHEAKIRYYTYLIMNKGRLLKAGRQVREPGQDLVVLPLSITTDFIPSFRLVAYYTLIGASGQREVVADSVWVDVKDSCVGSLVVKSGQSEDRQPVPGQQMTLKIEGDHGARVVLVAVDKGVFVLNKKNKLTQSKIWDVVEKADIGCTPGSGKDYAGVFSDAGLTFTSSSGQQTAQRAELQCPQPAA
T2 sequence (P01024 749-1663 limits assumed): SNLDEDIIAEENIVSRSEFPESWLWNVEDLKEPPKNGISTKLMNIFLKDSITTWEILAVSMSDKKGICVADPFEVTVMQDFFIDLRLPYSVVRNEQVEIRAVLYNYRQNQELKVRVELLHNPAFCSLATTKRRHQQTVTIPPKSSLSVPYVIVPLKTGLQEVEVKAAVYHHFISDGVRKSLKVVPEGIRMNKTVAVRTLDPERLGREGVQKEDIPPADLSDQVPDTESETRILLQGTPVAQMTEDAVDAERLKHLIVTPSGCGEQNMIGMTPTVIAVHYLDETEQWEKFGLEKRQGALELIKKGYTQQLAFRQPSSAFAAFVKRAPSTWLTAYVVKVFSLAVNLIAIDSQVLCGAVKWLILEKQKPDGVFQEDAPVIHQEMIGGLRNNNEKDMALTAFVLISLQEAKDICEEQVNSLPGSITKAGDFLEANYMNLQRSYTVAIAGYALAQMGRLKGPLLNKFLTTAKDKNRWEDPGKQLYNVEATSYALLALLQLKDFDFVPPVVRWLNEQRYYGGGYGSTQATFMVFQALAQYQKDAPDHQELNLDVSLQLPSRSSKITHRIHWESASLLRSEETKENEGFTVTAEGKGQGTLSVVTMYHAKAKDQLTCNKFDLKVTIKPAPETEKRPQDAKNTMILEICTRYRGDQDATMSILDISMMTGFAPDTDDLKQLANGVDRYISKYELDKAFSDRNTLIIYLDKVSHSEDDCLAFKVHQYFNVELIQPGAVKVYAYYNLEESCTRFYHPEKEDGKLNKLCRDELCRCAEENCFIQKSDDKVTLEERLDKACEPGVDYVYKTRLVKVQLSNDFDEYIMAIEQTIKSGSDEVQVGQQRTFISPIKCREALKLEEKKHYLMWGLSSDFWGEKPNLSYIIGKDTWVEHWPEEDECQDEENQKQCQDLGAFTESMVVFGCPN
T2 sequence (P00751 260-764 limits assumed): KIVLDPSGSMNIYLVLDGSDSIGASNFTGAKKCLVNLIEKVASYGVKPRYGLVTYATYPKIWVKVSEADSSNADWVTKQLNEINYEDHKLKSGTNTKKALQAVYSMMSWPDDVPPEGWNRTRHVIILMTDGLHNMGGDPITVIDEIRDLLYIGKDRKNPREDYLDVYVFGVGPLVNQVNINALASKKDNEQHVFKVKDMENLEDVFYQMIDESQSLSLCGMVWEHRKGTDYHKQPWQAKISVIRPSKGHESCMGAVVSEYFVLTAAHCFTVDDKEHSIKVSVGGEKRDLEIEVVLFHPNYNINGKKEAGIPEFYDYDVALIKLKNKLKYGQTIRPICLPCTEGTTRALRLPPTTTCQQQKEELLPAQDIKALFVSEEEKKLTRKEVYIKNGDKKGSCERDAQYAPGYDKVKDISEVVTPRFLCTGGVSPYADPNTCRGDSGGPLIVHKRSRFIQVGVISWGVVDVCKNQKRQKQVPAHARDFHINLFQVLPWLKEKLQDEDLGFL
Method: as §1
Membrane-bound convertase was formed as in the C3bBb assay. During the convertase decay step, cells were incubated with FP alone at a fixed dose (800 ng); 4 different doses of IgG alone and a mix of both IgG and FP at the same concentration. […]
[…] Residual convertase was measured and data were expressed as percentage of inhibition (percentage of residual convertase compared to the control without peptide).

[6] = target: C3bBbP Properdin-stabilized alternative pathway C3 convertase (UniProt P01024); assay: SPR (ProteOn XPR36), C3b on GLC chip, convertase formed with FB, FD and FP, control IgG injected
C3bBbP Properdin-stabilized alternative pathway C3 convertase, sequence (P01024 23-1663 limits assumed, chain 1 of 3): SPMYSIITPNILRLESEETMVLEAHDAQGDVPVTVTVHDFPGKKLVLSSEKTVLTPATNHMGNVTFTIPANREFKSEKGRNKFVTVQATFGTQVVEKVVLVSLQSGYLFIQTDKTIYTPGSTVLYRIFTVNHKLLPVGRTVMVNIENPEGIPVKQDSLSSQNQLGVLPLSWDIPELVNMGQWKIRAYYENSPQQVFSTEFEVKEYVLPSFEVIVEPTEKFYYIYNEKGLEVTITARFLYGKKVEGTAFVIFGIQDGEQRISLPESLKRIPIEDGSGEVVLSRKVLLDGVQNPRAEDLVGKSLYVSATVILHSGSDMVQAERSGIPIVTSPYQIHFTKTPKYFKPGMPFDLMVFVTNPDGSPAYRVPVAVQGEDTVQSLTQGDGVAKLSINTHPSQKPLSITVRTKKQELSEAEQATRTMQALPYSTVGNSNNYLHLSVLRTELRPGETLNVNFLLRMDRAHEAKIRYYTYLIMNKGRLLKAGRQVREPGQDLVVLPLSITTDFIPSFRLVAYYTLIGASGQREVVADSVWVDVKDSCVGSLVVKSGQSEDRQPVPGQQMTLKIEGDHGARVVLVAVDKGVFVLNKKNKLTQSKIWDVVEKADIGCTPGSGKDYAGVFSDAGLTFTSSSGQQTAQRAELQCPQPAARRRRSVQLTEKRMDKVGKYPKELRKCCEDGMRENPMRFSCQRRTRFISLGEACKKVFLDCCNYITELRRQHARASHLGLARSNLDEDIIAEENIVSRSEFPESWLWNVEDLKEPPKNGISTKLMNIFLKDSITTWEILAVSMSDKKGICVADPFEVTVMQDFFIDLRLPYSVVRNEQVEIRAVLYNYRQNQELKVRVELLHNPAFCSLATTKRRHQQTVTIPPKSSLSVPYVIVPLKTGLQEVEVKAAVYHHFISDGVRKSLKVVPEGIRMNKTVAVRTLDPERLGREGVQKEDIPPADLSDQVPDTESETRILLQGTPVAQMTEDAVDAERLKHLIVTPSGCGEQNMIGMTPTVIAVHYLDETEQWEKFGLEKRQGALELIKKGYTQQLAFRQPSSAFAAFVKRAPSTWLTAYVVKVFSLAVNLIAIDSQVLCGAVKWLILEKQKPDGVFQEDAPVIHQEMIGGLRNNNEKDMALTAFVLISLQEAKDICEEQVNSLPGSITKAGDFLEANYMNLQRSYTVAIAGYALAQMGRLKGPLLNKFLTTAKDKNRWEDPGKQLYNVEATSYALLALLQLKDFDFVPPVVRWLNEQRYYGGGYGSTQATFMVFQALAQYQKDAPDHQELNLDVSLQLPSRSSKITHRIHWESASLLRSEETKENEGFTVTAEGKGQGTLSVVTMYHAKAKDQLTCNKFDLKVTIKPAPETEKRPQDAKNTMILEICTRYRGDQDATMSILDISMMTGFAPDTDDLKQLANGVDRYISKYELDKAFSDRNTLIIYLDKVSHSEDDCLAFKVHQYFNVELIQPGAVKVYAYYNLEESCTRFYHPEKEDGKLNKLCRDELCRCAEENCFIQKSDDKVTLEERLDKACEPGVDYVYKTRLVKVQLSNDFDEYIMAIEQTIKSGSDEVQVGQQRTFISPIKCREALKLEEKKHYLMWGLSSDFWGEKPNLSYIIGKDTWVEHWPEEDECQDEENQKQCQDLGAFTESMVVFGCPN
C3bBbP Properdin-stabilized alternative pathway C3 convertase, sequence (P00751 260-764 limits assumed, chain 2 of 3, further chain): as the sequence (P00751 260-764 limits assumed) above
C3bBbP Properdin-stabilized alternative pathway C3 convertase, sequence (P27918 28-469 limits assumed, chain 3 of 3, further chain): as the sequence (P27918 28-469) above

[7] = target: C3bBb alternative pathway C3 convertase (UniProt P01024); assay: SPR (ProteOn XPR36), C3b on GLC chip, convertase formed with FB and FD, control IgG injected
C3bBb alternative pathway C3 convertase, sequence (P01024 23-667 limits assumed, form in doubt, chain 1 of 3): as the sequence (P01024 23-667 limits assumed) above
C3bBb alternative pathway C3 convertase, sequence (P01024 749-1663 limits assumed, form in doubt, chain 2 of 3): as the sequence (P01024 749-1663 limits assumed) above
C3bBb alternative pathway C3 convertase, sequence (P00751 260-764 limits assumed, form in doubt, chain 3 of 3, further chain): as the sequence (P00751 260-764 limits assumed) above

[8] = target: Properdin enhancer C3NeF (4 patients' Ig positive in both tests, Example 2); assay: cell-based or functional assay
[9] = target: Properdin like C3NeF (3 patients' Ig positive for the C3bBb and negative for the C3bBbP test, Example 2); assay: cell-based or functional assay
Properdin [10] = target: Properdin (human, UniProt P27918 28-469); assay: cell-based or functional assay
Properdin (human, UniProt P27918 28-469), sequence (P27918 28-469 limits assumed): as the sequence (P27918 28-469) above

[11] = target: 3 C3NeF samples positive in both the C3bBb and the C3bBbP tests (Example 1); assay: cell-based or functional assay
[12] = target: 3 C3NeF samples positive for the C3bBb and negative for the C3bBbP test (Example 1); assay: cell-based or functional assay
[13] = in presence of Properdin_enhancer C3NeF
[14] = in presence of Properdin_like C3NeF

G-EDEEPWEQITVV YPKIWV (GEDEEPWEQITVVYPKIWV; Synthetic pep2) [peptide 2, 3 parts of C3b and one part of the vWFA domain of Bb]
% inhibition of the Properdin stabilization capacity (Properdin [1]): no effect
decrease of % stabilization of P1 IgG (C3NeF (patient IgG) [2]): remained in the same range

G-EERLDKACENNDSIGASNFTG (GEERLDKACENNDSIGASNFTG; Synthetic pep3) [peptide 3, residues of C3b and Bb, left side of the C3 convertase]
% inhibition of the Properdin stabilization capacity (Properdin [1]): no effect
decrease of % stabilization of P1 IgG (C3NeF (patient IgG) [2]): remained in the same range

G-QDEENQKQCQDLGAFTESMVVFNIENLQKTVWD (GQDEENQKQCQDLGAFTESMVVFNIENLQKTVWD; N-terminal G; Synthetic pep1) [peptide 1, 22 residues of C3b (1616-1637) and 11 residues of Bb (308-318)]
capacity of peptides to bind Properdin (Properdin [3]): binds
dose dependence of inhibition of IgG stabilization (C3NeF (patient IgG) [4]): dose dependent
dose dependence of inhibition of Properdin stabilization (Properdin [1]): dose-dependent
decrease of % stabilization of P1 IgG (C3NeF (patient IgG) [2]): 40%
C3NeF stabilization diminished (C3NeF (patient IgG) [2]; 3 C3NeF samples positive for the C3bBb and negative for the C3bBbP test): 20-40%
C3NeF stabilization diminished (C3NeF (patient IgG) [2]; 3 C3NeF samples positive in both tests): 20-70%
percentage of inhibition vs control (C3NeF (patient IgG) [2]; [13]): No significant difference
percentage of inhibition vs control (C3NeF (patient IgG) [2]; [14]): significantly higher

GAFTESMVVFLKHDEYNIE (Synthetic short1)
stabilization of the Convertase diminished (C3NeF (patient IgG) [2]; Example 2, Properdin enhancer C3NeF (4 patients' Ig positive in both tests), 80 μg peptide): 40-80%
percentage of inhibition vs control (C3NeF (patient IgG) [2]; [13]): significantly higher
percentage of inhibition vs control (C3NeF (patient IgG) [2]; [14]): No significant difference

GENQKQCQDLGAFTESMVVFLKHDE (Synthetic pep1C3bExt)
% inhibition of the Properdin stabilization capacity (Properdin [1]): no effect
percentage of inhibition vs control (C3NeF (patient IgG) [2]; [13]): No significant difference
percentage of inhibition vs control (C3NeF (patient IgG) [2]; [14]): significantly higher

Properdin: complement protein Properdin (Calbiochem), stabilizes the C3 convertase
residual C3bBb lytic site ([5]; 800 ng of Properdin): 60%
% of stabilization of C3 convertase ([5]; Properdin incubated with peptides' excipient): 40%

SMVVFLKHDEYNIENLQKTVWD (Synthetic pep1BbExt) [22 aminoacids comprising 5 aa on C3b and 17 from FB]
capacity of peptides to bind Properdin (Properdin [3]): binds
dose dependence of inhibition of Properdin stabilization (Properdin [1]): dose-dependent
percentage of inhibition vs control (C3NeF (patient IgG) [2]; [13]): No significant difference
percentage of inhibition vs control (C3NeF (patient IgG) [2]; [14]): significantly higher

control IgG from healthy donors (antibody)
IgG binding, residual (RU) [6]: 13 RU
IgG binding, residual (RU) [7]: 1 RU

GAFTESMVVFLKHDEYNIE [short1]
stabilization diminished [8]: 40 to 80%

GENQKQCQDLGAFTESMVVFLKHDE [Pep1C3bExt]
stabilization diminished [9]: 20 to 40%

GQDEENQKQCQDLGAFTESMVVFNIENLQKTVWD (also: biotinylated when coated in ELISA) [Peptide 1]
inhibition of the Properdin stabilization capacity (Properdin [10]): 80%
C3NeF stabilization diminished [11]: 20 to 70%
stabilization diminished [9]: 20 to 40%
C3NeF stabilization diminished [12]: 20 to 40%

SMVVFLKHDEYNIENLQKTVWD (also: biotinylated when coated in ELISA) [Pep1BbExt]
inhibition of the Properdin stabilization capacity (Properdin [10]): 80%
stabilization diminished [9]: 20 to 40%
